Assays:
C5L2 [1] = target: T1, C5L2 (Homo sapiens, UniProt Q9P296); assay: Competition binding with 125I-C3a, C5L2-transfected RBL cells; settings: for IC50 / pD2 ± SE: C5L2 (^125I-C3a) expressed in RBL cells, 50 pM radioligand
T1 construct: expressed in transfected cells
Procedure: (§1) FIG. 1 illustrates C3a des-Arg^77 and C4a des-Arg^77 bind to RBL cells expressing C5L2. RBL cells transfected with C5L2 were incubated with the stated concentrations of complement fragments for 10 min prior to the addition of 50 pM ^125I-C3a (A) or 50 pM ^125I-C5a (B). Results are the means of n (n shown in Table 1) separate experiments performed in duplicate±S.E.;
(§2) C5L2, C3aR and CD88-transfected RBL cells were produced as described (17). G16 was cloned from human monocytes mRNA and authenticated by sequencing. Human G16 and either C5L2 or CD88 were ligated into the bicistronic expression vector pIRES (Qiagen). Stable transfection of RBL-2H3 cells with pIRES constructs was achieved by electroporation (18). Cells underwent three rounds of fluorescence-activated cell sorting using anti-CD88 antibody (clone S5/1; Serotec) or anti-hemagglutinin peptide antibody (Roćhe Molecular Biochemicals, clone 12CA5), selecting the top 5% of receptor-positive cells in each round.
(§3) Competition binding assays were performed using 50 pM ^125I-C5a or ^125I-C3a (NEN) on adherent C5aR-transfected or C5L2-transfected RBL cells in 96-well microtiter plates (55 000/well) at 4° C. as described previously (22). Competition curves were generated by pre-incubating adherent cells with increasing concentrations of unlabelled complement fragments. The IC50, standard error values and linear regression analyses were obtained by using GraphPad Prism 2.0.

C5L2 [2] = target: T1, C5L2; assay: Degranulation (β-hexosaminidase) and enhancement of IgE-receptor-mediated degranulation, C5L2-transfected RBL cells; assay type: cell-based
C5L2 [3] = target: T1, C5L2; assay: Triglyceride synthesis (3H oleate incorporation) in HEK293 cells stably transfected with C5L2; assay type: cell-based
Procedure: FIG. 15: Functional Response of HEK293 Cells Stably Transfected with C5L2 to ASP and Insulin: Cells were tested for response to ASP and insulin stimulation of triglyceride synthesis with 100 μM ^3H oleate for 4 hours. Results are calculated as nmol ^3H oleate incorporated into triglyceride/mg cell protein where 0 ASP is set as 100%. […] As in many biologic assays, the concentration required for activity at 37° C. under dynamic conditions is greater than the binding affinity (which is assessed at 4° C. under static conditions). For example, insulin Kd is in the pM range, but nM concentrations are required for activity. ASP Kd is high nM range, but biologic activity is in low μM range.

CD88 [4] = target: T2, CD88 (Homo sapiens, UniProt P21730); assay: Radiolabelled ligand competition receptor binding, CD88-transfected RBL cells
T2 construct: expressed in transfected cells
T2 sequence (P21730 1-350): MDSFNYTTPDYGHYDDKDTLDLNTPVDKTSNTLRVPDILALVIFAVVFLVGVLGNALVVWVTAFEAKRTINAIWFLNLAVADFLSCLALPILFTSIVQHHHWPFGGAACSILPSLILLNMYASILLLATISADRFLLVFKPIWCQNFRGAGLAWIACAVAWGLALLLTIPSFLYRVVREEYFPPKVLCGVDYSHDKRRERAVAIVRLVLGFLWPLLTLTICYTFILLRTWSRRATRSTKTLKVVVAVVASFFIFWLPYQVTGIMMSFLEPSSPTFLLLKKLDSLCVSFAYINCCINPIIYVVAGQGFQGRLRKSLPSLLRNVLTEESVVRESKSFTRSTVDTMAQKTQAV
Source text: as §2, §3

C3aR [5] = target: T3, C3aR (Homo sapiens, UniProt Q16581); assay: Radiolabelled ligand competition receptor binding, C3aR-transfected RBL cells
T3 construct: expressed in transfected cells
T3 sequence (Q16581 1-482): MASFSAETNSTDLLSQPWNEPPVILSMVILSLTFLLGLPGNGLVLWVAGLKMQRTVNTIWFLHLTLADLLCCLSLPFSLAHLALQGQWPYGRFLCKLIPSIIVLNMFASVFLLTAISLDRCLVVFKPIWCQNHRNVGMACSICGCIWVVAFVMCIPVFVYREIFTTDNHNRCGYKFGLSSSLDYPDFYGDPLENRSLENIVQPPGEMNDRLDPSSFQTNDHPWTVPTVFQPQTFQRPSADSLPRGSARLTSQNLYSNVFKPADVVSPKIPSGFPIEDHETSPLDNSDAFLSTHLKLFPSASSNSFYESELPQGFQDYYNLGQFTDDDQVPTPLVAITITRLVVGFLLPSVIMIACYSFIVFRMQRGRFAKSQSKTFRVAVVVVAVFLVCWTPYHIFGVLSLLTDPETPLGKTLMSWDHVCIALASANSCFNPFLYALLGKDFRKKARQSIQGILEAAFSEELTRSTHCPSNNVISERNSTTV
Source text: as §2, §3

C5L2 [6] = target: T1, C5L2; assay: Competition binding with 125I-C5a, C5L2-transfected RBL cells
Procedure: as §1, §2, §3

[7] = target: T4, human formyl peptide-like receptor-1 (Homo sapiens, UniProt P25090); assay: Enhancement of degranulation, RBL cells transfected with an irrelevant receptor; assay type: cell-based; settings: RBL cells transfected with FPRL-1, FIG. 3B
T4 construct: expressed in transfected cells; host or cells: RBL cells
T4 sequence (P25090 1-351): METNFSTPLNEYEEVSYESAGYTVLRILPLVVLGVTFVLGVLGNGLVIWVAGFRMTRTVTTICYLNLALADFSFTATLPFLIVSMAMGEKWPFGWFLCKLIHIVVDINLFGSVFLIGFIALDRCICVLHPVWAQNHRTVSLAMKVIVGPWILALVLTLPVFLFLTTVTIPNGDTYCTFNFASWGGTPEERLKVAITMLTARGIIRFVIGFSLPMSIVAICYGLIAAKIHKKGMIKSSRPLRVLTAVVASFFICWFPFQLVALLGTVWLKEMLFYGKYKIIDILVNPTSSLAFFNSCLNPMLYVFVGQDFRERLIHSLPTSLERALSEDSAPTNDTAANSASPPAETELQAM
Procedure: FIG. 3 illustrates C3a des-Arg^77 enhances the degranulation response to cross-linkage of the high affinity IgE receptor in cells transfected with C5L2. RBL cells transfected with A), C5L2 or B), an irrelevant receptor (human formyl peptide-like receptor-1) were incubated overnight with […] IgE^DNP and then treated with the stated concentrations of C5a des-Arg^74, C4a des-Arg^77 or C3a des-Arg^77 or ASP for 15 minutes prior to the addition of the cross-linking agent, HSA-DNP at 100 ng/ml. Degranulation was assessed as the secretion of β-hexosaminidase. Results are shown as a percentage of the release stimulated by 100 ng/ml HSA-DNP in the absence of anaphylatoxin (control=1) and are means of 3-6 separate experiments performed in triplicate, ±S.E.
(§4) Cellular activation was measured as the release of -hexosaminidase from intracellular granules (20). In the enhancement of degranulation assay, cells were treated with 1 μg/ml IgE^DNP (21) overnight, then with chemoattractants or peptides for 10 min prior to stimulation with 100 ng/ml DNP-HSA (Sigma) for 15 minutes. EC50 and standard error values were obtained by iterative curve fitting using GraphPad Prism 2.0.

CD88 [8] = target: T2, CD88; assay: Degranulation of CD88-transfected RBL cells; assay type: cell-based
C3aR [9] = target: T3, C3aR; assay: Degranulation of C3aR-transfected RBL cells; assay type: cell-based; settings: RBL cells transfected with C3aR; data not shown
Procedure: as §4

C5L2 [10] = target: T1, C5L2; assay: Fluorescent ligand binding/uptake (FACS), HEK 293 cells transiently transfected with C5L2
Procedure: (§5) HEK 293 cells were transfected with C3aR (A) or C5L2 (B) and three days later cells were incubated for 30 minutes with the indicated concentrations of FLUOS-labelled C3a or ASP, respectively. Binding/uptake was assessed by FACS, and the percentage of cells above a fluorescence intensity of 8 was determined. The fluorescence histograms at the highest and lowest ligand concentrations are shown in the insets;
(§6) HEK 293 cells were seeded into 6-well plates at 1×10^6 cells/well the day before transfection. C5L2 in vector pEE6hCMV.neo (Celltech) or C3aR in vector pcDNA1/AMP (Invitrogen) at 2 μg DNA/well were transfected with Lipofectamine2000 (5 μl/well) (Invitrogen) according to the manufacturer's protocol. Cells were assayed for binding/uptake three days post-transfection.
(§7) ASP or C3a was labelled with FLUOS (Roche Biochemicals) at a molar ratio of 1:10 (ligand:FLUOS) for two hours according to the manufacturer's recommendations. Labelled ligand was separated from free FLUOS on a Sephadex G25M column and stored in aliquots at −80° C.
(§8) Cells were incubated with the indicated concentrations of FLUOS-labelled ASP or C3a for 30 minutes at 37° C. in binding buffer (23) and washed three times with cold binding buffer. Cells were then detached with 0.25% trypsin/0.02% EDTA in PBS, fixed with 1% paraformaldehyde, washed with PBS, and assayed by fluorescence-activated cell scanning.

C3aR [11] = target: T3, C3aR; assay: Fluorescent ligand binding/uptake (FACS), HEK 293 cells transiently transfected with C3aR; settings: HEK 293 transiently transfected with C3aR; mean±SD, n=3
Procedure: as §5, §6, §7, §8

CD88+Gα16 = target: T5, CD88+Gα16 (Homo sapiens, UniProt P21730); assay: Degranulation of CD88+Gα16 co-transfected RBL cells; assay type: cell-based; settings: 10 ng/ml PT
T5 construct: expressed in transfected cells
T5 sequence (P21730 1-350): T2 sequence (P21730 1-350)

[12] = HEK-C5L2 stable transfectants, 100 μM ^3H oleate, 4 hours
[13] = C5L2 (^125I-C5a) expressed in RBL cells, 50 pM radioligand

T1 sequence (Q9P296 whole entry): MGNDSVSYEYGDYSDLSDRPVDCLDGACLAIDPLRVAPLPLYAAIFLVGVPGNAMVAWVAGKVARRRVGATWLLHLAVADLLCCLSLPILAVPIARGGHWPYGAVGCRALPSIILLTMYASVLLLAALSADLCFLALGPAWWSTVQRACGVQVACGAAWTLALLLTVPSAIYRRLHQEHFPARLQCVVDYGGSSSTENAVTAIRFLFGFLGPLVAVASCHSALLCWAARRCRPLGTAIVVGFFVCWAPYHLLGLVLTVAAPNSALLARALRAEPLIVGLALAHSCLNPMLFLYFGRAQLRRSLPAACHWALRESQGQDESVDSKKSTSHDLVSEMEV

ASP: Plasma ASP (C3a des-Arg^77), human C3a des-Arg^77 purified as acylation-stimulating protein
Kd (C5L2 [1]; binding affinity assessed at 4° C. under static conditions): high nM range | EC50 compared with recombinant C3a des-Arg^77 (C5L2 [2]; enhancement of IgE-mediated degranulation, FIG. 3A): identical EC50 | concentration for biologic activity (C5L2 [3]; 37° C. under dynamic conditions): low μM range | stimulation of triglyceride synthesis (C5L2 [3]; [12]): increasing triglyceride synthesis in a concentration dependent manner | stimulation of triglyceride synthesis (C5L2 [3]; non-transfected HEK cells): not responsive to ASP

C3a des-Arg^77
competition with ^125I-C5a binding to CD88 (CD88 [4]): cannot compete effectively | affinity for C3aR (C3aR [5]; Table I): no detectable affinity | IC50 (C5L2 [6]; [13]): 18 µM | pD2 ± SE (C5L2 [6]; [13]): 4.73 ± 0.16 | competition with ^125I-C5a binding to C5L2 (C5L2 [6]; FIG. 1B): cannot compete effectively | IC50 (C5L2 [1]): 0.526 µM | pD2 ± SE (C5L2 [1]): 6.24 ± 0.10 | competition with ^125I-C3a for C5L2 binding (C5L2 [1]; FIG. 1A): can compete strongly | direct stimulation of degranulation (C5L2 [2]; without IgE receptor cross-linking, data not shown): neither recombinant nor purified C3a des-Arg^77 (or any other ligand) is able to directly stimulate degranulation | enhancement of degranulation [7]: small enhancement of degranulation | stimulation of degranulation (CD88 [8]; RBL cells transfected with CD88, data not shown): neither C3a des-AXg^77 nor C4a des-Arg^77 can stimulate degranulation | stimulation of degranulation (C3aR [9]): neither C3a des-AXg^77 nor C4a des-Arg^77 can stimulate degranulation

C3a: 77 amino acid complement fragment
IC50 (CD88 [4]; CD88 expressed in RBL cells, competition binding, 4° C., read-out: IC50 (concentration of unlabelled ligand resulting in 50% of maximal radioligand binding)): 23 µM | IC50 (C5L2 [6]; [13]): 23 µM | IC50 (C5L2 [1]): 0.167 µM | pD2 ± SE (C5L2 [1]): 6.78 ± 0.10

FLUOS-ASP: ASP labelled with FLUOS at a molar ratio of 1:10
Kd (C5L2 [10]; HEK 293 transiently transfected with C5L2, 30 minutes at 37° C., flow cytometry, read-out: half maximal fluorescence intensity (binding/uptake)): ~0.003 µM | binding to mock-transfected cells (C5L2 [10]; mock-transfected HEK 293 cells, 10 nM): no binding | binding (basal binding=100%) (C3aR [11]): 103%±14%

^125I-ASP: ^125I-labelled ASP [reference compound]
binding to C3aR-transfected cells (C3aR [5]; ^125I-labelled ligand, data not shown): does not bind to C3aR-transfected cells

insulin
stimulation of triglyceride synthesis (C5L2 [3]; [12]): neither HEK nor HEK-C5L2 are responsive to insulin | stimulation of triglyceride synthesis (C5L2 [3]; non-transfected HEK cells): neither HEK nor HEK-C5L2 are responsive to insulin

pertussis toxin [reference compound]
effect on enhancement of degranulation by ASP/C3a des-Arg^77 (C5L2 [2]; C5L2 alone, 10 ng/ml PT for 4 h, FIG. 4C): can be inhibited by pre-treating cells with pertussis toxin | effect on degranulation response to C5a (CD88 [8]; CD88 alone, 0-10 ng/ml PT for 4 h prior to 50 nM C5a): inhibited the degranulation response | effect on degranulation response to C5a (CD88+Gα16): a small inhibition of degranulation
